{
  "source": "patent US20230140200A1",
  "about": "“COMPOSITIONS AND METHODS FOR DETECTING CELLS UNDERGOING FERROPTOSIS USING AN ANTIBODY” (THE TRUSTEES OF COLUMBIA UNIVERSITY IN THE CITY OF NEW YORK, priority 2020, published 2023)",
  "key": {"mouse TfR1": {"molecular_target": "T1, mouse TfR1 (Mus musculus, UniProt Q62351)", "T1 construct": "We evaluated 3F3-FMA staining in mouse glioblastoma (GBM) paraffin-embedded tissue samples; from tissue; host or cells: mouse glioblastoma (murine glioma model, c57/B6 mice), paraffin-embedded brain sections", "T1 sequence (Q62351 whole entry)": "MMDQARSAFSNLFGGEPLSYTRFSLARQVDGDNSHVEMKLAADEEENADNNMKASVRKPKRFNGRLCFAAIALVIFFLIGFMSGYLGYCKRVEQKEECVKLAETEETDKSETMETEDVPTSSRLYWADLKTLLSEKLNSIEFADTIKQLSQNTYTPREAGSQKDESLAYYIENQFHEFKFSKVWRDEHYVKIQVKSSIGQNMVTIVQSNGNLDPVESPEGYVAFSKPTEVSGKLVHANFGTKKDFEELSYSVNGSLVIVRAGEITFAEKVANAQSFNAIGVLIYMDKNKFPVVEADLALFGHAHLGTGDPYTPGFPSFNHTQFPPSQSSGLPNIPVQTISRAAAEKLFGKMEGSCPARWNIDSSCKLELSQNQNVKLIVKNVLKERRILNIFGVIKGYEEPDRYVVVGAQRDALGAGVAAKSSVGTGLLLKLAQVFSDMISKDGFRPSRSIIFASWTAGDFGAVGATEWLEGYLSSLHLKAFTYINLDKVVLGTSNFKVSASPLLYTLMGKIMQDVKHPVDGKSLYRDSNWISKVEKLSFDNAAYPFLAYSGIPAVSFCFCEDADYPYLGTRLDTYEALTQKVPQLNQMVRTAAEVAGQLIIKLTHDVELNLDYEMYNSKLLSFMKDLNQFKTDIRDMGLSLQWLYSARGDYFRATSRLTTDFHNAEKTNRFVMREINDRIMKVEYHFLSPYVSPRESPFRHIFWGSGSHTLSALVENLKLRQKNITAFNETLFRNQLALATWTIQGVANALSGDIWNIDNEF", "assay": "Staining of mouse glioblastoma paraffin-embedded tissue", "conditions": "paraffin-embedded GBM tissue", "method": "All procedures were performed according to the Columbia University Medical Center Institutional Animal Care and Use Committee. Murine glioma cell lines were created from tumor bearing mice. These tumors were generated by injection of a PDGF-IRES-Cre retrovirus into the subcortical white matter of mice with floxed PTEN and/or p53 (Sonabend et al., 2013). After mice reached end stage, the tumors were dissociated and primary cell cultures were created. These cells harbored the specific mutations of the original tumors, and could be re-injected to form gliomas in c57/B6 mice with high fidelity. Briefly, mice between the ages of 6-8 weeks received 50,000 murine glioma cells through stereotactic injection after being anesthetized with a ketamine/xylazine cocktail (87.5 mg/12.5 mg w/w). After cessation of toe-pinch reflex, the scalp was shaved and cleaned with serial use of betadine and 70% ethanol swabs. An incision was made and the skull was exposed. A burr hole was created, 2 mm anterior, 2 mm lateral and 2 mm deep to the right of the bregma. The cells were injected into the subcortical white matter over a period of 3 minutes (0.333 μL/min). Once the injection ceased, the needle was left in place for 1 minute before being slowly withdrawn. After tumor developed, brains were harvested and fixed in 4% paraformaldehyde and embedded in paraffin. 5 micron sections were made for staining."}, "Huh-7 cells": {"test_system": "Huh-7 cells", "assay": "Immunofluorescence in Huh-7 cells", "type": "cell-based", "conditions": "1 μM RSL3, 4 h"}, "TfR1": {"test_system": "TfR1", "assay": "Western blot of TfR1 during ferroptosis", "type": "cell-based, human", "conditions": "RSL3-induced and IKE-induced ferroptosis, HT-1080 cells", "method": "HT-1080 cells were seeded in DMEM (Corning 10-013-CM) and 10% Hi-FBS with 1% penicillin and streptomycin (PS) with 1% MEM Non-Essential Amino Acids Solution (100×) (Thermo Fisher Scientific 11140-076) 16 h prior to use. DMSO or 1 μM of RSL3 was added and incubated for 4 h. Following treatment, the medium was aspirated from each dish and cells were washed twice with PBS. Cells were lysed with 70 μl lysis buffer (RIPA buffer from ThermoFisher, cat. 89900, 1 mM EDTA, 1 mM PMSF, 1× Halt™ protease inhibitor cocktail from ThermoFisher, cat. 78430 and 1× Halt™ phosphatase inhibitor cocktail from ThermoFisher, cat. 78426). Unlysed cells and debris were pelleted for 15 min at 16,000×g at 4° C. Samples were separated using SDS-PAGE and transferred to a polyvinylidene difluoride membrane. Transfer was performed using the iBlot2 system (Invitrogen). […]"}, "HT-1080 cells": {"test_system": "HT-1080 cells", "assay": "Flow cytometry staining without permeabilization", "type": "cell-based, human", "conditions": "vs DMSO"}},
  "note": "Entries after “also recorded” stand apart in the source; their conditions may differ.",
  "data": [
    {"molecule": "3F3-FMA: Murine monoclonal IgG1 raised against ferroptotic membrane fractions; antigen is transferrin receptor protein 1 (TfR1) (antibody, V domains shown) VH: EVLLQQSGTELVRPGALVKLSCKASGFNIQDLYIHWVKQRPEQGLEWIGWIDPETDNTIYDPKFQGKASITADTSSNTAYLQLSSLTSEDTAMYYCSTGLLQWYFDVWGAGTAVTVSS VL: DIVMTQSPSSLAMSIGQKVTMRCKSSQSLLNSYNQKNCLAWYQQKPGQSPKLLLYFVSTRESGVPDRFIGSGSGTDFTLTISSVQAEDLADYFCQQHYSTPLTFGAGTKLELK", "values": [
      {"measurement": "recognition of TfR1 in tumor samples", "setting": "mouse TfR1", "result": "able to recognize mouse TfR1 protein"},
      {"measurement": "3F3-FMA staining upon ferroptosis induction", "setting": "Huh-7 cells", "result": "concentrated at the cell boundaries and became brighter"},
      {"measurement": "intensity of western blot bands during ferroptosis", "setting": "TfR1", "result": "increased intensity of the bands"},
      {"measurement": "antibody staining intensity by flow cytometry in RSL3-treated cells", "setting": "HT-1080 cells; 1 μM RSL3, 4 h", "result": "increased intensities"},
      {"measurement": "antibody staining intensity by flow cytometry in STS-induced apoptosis", "setting": "HT-1080 cells; 1 μM STS, 6 h", "result": "decreased intensity; also recorded: decreased intensities"}
    ]}
  ]
}
